Measurements: patent US8501696 (dated 2013)

Target: Hyper-IL-6 (designer cytokine consisting of covalently linked IL-6 and sIL-6R) (human, UniProt P08887 20-323; P05231 30-212)
Assay: SPR

Sequence of Hyper-IL-6 (designer cytokine consisting of covalently linked IL-6 and sIL-6R) (P08887 20-323, chain 1 of 2): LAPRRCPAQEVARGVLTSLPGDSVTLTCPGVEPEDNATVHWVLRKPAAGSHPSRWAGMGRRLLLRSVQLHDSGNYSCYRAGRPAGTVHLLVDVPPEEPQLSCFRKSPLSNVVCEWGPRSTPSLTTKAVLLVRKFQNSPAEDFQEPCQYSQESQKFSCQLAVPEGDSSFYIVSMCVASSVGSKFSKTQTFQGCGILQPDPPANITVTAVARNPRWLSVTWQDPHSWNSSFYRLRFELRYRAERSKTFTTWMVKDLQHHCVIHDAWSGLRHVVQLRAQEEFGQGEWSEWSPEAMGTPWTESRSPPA
Sequence of Hyper-IL-6 (designer cytokine consisting of covalently linked IL-6 and sIL-6R) (P05231 30-212, chain 2 of 2): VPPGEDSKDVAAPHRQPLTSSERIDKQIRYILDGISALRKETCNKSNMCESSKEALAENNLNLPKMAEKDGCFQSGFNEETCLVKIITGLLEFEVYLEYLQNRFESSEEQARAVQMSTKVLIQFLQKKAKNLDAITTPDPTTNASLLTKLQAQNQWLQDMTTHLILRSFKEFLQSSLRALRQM

B1: wild type sgp130Fc (Fc fusion)
chain: ELLDPCGYISPESPVVQLHSNFTAVCVLKEKCMDYFHVNANYIVWKTNHFTIPKEQYTIINRTASSVTFTDIASLNIQLTCNILTFGQLEQNVYGITIISGLPPEKPKNLSCIVNEGKKMRCEWDGGRETHLETNFTLKSEWATHKFADCKAKRDTPTSCTVDYSTVYFVNIEVWVEAENALGKVTSDHINFDPVYKVKPNPPHNLSVINSEELSSILKLTWTNPSIKSVIILKYNIQYRTKDASTWSQIPPEDTASTRSSFTVQDLKPFTEYVFRIRCMKEDGKGYWSDWSEEASGITYEDRPSKAPSFWYKIDPSHTQGYRTVQLVWKTLPPFEANGKILDYEVTLTRWKSHLQNYTVNATKLTVNLTNDRYLATLTVRNLVGKSDAAVLTIPACDFQATHPVMDLKAFPKDNMLWVEWTTPRESVKKYILEWCVLSDKAPCITDWQQEDGTVHRTYLRGNLAESKCYLITVTPVYADGPGSPESIKAYLKQAPPSKGPTVRTKKVGKNEAVLEWDQLPVDVQNGFIRNYTIFYRTIIGNETAVNVDSSHTEYTLSSLTSDTLYMVRMAAYTDEGGKDGPEFTFTTPKFAQGEIE
For B1, the Kd was 0.499 nM.
